Source: US20220041738A1 (SAITAMA MEDICAL UNIVERSITY, published 2022)

What was measured:
Experiment in all cases: immunofluorescence (legend of FIG. 4)
[1] = biological target: T1, human ALK2-R202I on cells (human, UniProt Q04771 21-509)
T1 sequence: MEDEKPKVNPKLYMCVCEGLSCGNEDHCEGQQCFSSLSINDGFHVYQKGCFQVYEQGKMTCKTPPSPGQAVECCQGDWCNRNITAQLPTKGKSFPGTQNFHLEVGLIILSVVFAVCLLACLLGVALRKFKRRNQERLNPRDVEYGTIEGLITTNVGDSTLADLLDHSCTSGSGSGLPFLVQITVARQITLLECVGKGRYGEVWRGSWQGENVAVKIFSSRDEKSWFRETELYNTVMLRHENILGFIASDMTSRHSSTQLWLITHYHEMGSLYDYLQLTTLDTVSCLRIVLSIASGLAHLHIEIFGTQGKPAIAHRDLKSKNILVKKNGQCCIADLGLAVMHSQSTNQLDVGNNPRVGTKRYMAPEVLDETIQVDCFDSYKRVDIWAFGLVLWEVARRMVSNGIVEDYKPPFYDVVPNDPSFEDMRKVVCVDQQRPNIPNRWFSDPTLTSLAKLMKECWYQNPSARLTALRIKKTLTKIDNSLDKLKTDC
Description: (§1) Mouse C2C12 cells were seeded into a 96-well plate (Greiner Bio-One) at 0.5×10³ cells/well, and cultured in 15% FBS-containing DMEM medium overnight under the conditions of 5% CO₂ at 37° C. On the following day, the C2C12 cells were transfected with each of a wild-type human ALK2 cDNA integrated into pcDEF3; pcDEF3/human ALK2-L196P, pcDEF3/human ALK2-P197_F198delinsL, pcDEF3/human ALK2-R202I, pcDEF3/human ALK2-R206H, pcDEF3/human ALK2-Q207E, pcDEF3/human ALK2-R258S, pcDEF3/human ALK2-G325A, pcDEF3/human ALK2-G328E, pcDEF3/human ALK2-G328R, pcDEF3/human ALK2-G328W, pcDEF3/human ALK2-G356D, and pcDEF3/human ALK2-R375P, which are variants identified in FOP; and pcDEF3 as a control, using Lipofectamine 2000 (Invitrogen), and further cultured overnight.
(§2) The C2C12 cells were fixed with 10% neutral formalin (Nacalai Tesque, Japan) for 20 minutes at room temperature, and then blocked with 10% goat normal serum for 30 minutes. After the blocking agent was removed, purified IgG diluted to 10 μg/mL with the blocking agent was added, and the cells were left for 1 hour at room temperature. After the cells were washed with PBS three times, Goat Alexa 594-conjugated anti-rat IgG (Invitrogen) diluted to 1:1000 with the blocking agent was added, and the cells were left for 1 hour at room temperature. After the cells were washed with PBS three times, the cells were fixed with 10% neutral formalin for 15 minutes at room temperature, and nuclear-stained with DAPI (LifeTechnologies). Fluorescent signals were analyzed with a fluorescence microscope BZ-9000 (Keyence).

[2] = biological target: T2, human ALK2-R206H on cells (human, UniProt Q04771 21-509)
T2 sequence: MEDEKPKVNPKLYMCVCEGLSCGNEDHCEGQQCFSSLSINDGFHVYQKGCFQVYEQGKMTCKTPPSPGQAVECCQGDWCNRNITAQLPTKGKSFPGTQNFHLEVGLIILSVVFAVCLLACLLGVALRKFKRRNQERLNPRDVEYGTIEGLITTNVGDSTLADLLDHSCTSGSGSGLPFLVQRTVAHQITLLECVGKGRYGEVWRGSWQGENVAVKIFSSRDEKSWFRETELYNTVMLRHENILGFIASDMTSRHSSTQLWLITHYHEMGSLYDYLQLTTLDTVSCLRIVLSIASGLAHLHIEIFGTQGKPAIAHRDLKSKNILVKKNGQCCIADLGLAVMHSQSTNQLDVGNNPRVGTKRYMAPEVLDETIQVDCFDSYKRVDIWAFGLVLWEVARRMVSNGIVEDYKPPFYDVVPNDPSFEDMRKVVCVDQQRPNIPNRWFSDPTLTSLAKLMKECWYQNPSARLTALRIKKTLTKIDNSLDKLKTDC
Description: as §1, §2

[3] = biological target: T3, human ALK2-Q207E on cells (human, UniProt Q04771 21-509)
T3 sequence: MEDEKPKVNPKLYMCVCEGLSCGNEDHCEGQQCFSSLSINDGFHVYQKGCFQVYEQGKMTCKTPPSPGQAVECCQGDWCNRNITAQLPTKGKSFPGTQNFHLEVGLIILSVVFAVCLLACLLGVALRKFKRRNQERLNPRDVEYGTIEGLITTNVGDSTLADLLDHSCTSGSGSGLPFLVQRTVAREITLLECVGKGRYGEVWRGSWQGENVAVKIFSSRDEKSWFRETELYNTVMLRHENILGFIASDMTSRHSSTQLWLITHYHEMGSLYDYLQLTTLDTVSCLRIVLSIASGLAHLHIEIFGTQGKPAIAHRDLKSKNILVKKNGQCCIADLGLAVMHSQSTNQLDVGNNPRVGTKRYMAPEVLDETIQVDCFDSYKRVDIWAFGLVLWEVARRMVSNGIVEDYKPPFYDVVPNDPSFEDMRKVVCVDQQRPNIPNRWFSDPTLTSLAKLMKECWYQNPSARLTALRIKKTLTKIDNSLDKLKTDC
Description: as §1, §2

[4] = biological target: T4, human ALK2-G328E on cells (human, UniProt Q04771 21-509)
T4 sequence: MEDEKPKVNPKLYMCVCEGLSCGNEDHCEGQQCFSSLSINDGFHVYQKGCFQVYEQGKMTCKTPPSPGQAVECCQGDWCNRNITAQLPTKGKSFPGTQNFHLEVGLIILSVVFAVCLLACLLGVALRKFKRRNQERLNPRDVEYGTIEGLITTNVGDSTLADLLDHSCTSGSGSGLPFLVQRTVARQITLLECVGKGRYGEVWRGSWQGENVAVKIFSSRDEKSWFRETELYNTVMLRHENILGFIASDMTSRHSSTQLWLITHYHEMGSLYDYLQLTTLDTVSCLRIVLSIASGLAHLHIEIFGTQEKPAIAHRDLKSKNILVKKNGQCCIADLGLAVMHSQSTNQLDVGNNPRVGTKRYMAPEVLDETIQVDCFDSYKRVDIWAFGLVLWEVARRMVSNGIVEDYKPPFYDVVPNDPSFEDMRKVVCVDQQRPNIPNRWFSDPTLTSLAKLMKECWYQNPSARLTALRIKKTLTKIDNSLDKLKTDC
Description: as §1, §2

Measured: binding result

B1: rat anti-ALK2 monoclonal antibody A2-15A (antibody, V domains shown)
VH: EVQLVESGGGLVQPGRSLKLSCAASGFTFSHYYMAWVRQAPTKGLEWVASITNSGGSINYRDSVKGRFTISRDNAKSTLYLQMDSLRSEDTATYYCTREGGENYGGYPPFAYWGQGTLVTVSS
VL: DIVLTQSPALAVSLGQRATISCRANQGVSLSRYNLMHWYQQKPGQKPKLLIYRSSNLASGIPARFSGSGSGTDFTLTINPVQADDIATYYCQQSRESPFTFGAGTKLELKR
notes: Rat monoclonal IgG from a hybridoma; also called 15A6
binds: [1] | [2] | [3] | [4]

B2: rat anti-ALK2 monoclonal antibody A2-11E (antibody, V domains shown)
VH: EVQLVETGGGLVQPGRSLKLSCVASGFTFSNYYMYWIRQAPGKGLEWISSINTDGGSTYYPDSVKGRFAISRDNAENTVYLQMNSLRSEDTATYYCAKSTPNIPLAYWGQGTLVTVSS
VL: DIQMTQSPSLLSASVGDRVTLSCKASQNIYKYLNWFQQKLGEAPKLLIYYSNSLQTGIPSRFSGSGSGTDFTLTISSLQPEDVAIYFCFQYSSGPTFGPGTKLELKR
notes: Rat monoclonal IgG from a hybridoma; also called 11E2
binds: [1] | [2] | [3] | [4]
